For the test, the target named is 破伤风毒素 (Clostridium tetani, UniProt P04958 2-1315).

For orientation: koff means the first-order rate constant of dissociation. Low readings indicate a long-lived complex, high ones a short-lived complex. One may read the kon as the second-order rate constant of association.

破伤风毒素, sequence (P04958 2-457 limits assumed, chain 1 of 2): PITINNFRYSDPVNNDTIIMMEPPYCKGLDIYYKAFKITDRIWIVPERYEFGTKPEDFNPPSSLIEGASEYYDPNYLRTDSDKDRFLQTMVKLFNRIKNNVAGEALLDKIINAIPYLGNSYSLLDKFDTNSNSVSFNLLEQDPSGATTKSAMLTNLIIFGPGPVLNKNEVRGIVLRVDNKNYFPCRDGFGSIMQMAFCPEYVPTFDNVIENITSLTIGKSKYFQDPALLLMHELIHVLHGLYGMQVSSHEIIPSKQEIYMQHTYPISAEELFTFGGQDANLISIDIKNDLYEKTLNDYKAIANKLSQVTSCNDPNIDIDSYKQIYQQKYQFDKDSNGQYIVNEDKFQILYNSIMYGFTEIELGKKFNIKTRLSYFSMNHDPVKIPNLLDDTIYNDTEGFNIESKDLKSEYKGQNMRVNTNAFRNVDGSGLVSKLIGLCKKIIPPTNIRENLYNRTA
破伤风毒素, sequence (P04958 458-1315 limits assumed, chain 2 of 2): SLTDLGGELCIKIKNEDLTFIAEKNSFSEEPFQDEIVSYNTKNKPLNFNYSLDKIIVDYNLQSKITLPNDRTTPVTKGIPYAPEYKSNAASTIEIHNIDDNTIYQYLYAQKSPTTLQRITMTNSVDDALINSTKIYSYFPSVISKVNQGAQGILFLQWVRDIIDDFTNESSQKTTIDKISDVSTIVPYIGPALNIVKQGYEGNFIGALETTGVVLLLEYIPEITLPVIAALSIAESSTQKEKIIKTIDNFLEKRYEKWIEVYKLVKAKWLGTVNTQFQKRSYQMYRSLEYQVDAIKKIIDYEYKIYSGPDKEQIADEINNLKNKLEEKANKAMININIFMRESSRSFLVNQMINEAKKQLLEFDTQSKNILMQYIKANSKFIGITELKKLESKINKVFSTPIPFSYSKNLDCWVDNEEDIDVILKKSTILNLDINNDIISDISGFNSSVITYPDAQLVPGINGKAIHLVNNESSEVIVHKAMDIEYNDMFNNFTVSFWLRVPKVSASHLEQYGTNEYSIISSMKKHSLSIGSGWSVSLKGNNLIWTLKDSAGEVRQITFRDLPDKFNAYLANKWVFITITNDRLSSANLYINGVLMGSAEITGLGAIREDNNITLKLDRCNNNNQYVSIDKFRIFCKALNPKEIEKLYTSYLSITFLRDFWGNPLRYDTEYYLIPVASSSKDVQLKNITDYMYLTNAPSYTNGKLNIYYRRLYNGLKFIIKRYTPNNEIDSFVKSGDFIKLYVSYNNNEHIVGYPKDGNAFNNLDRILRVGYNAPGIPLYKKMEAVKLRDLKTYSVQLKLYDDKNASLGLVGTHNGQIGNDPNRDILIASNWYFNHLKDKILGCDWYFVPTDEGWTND

B1: 抗体TRN1015 (antibody, V domains shown)
VH: EVQLVESGGGRVKPGGSLRLSCSVSGFGIGIYTMNWVRQAPGKGLEWVSSISGTSQYIYYANSVRGRFTISRDNAENSLYLQLNNLRAEDTALYYCVSGSSLDYWGQGTLVTISS
VL: DIQLTQSPSSLSASVGGRVTITCRASQNIGTNLNWFQQKPGTAPNLLIYGASTLQSGVPSRFSGSGSGTTFTLTIDSLQPEDFATYYCYQNYNSPKTFGQGTKVDLK
As to B1, the koff came to 9.4e-05 s⁻¹ and the kon amounted to 38800 M⁻¹ s⁻¹.

Values taken from CN108623681A (ZHUHAI TAINUO MAIBO BIOTECHNOLOGY CO LTD; GUANGZHOU …, dated 2018).
